From paper PMC2791397

Target: GST-Hmt1p (S. cerevisiae) (UniProt P38074)
Sequence (P38074 whole entry): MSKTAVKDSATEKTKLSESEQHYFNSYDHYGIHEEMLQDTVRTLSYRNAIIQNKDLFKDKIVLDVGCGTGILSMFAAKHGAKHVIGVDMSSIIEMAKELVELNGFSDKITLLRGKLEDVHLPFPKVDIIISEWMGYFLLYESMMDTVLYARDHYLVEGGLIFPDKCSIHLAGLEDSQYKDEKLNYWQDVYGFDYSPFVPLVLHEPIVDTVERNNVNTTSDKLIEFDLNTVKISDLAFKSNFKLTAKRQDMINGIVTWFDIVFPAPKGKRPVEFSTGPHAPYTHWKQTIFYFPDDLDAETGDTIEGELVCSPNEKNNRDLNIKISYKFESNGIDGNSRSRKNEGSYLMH

KM of Hmt1p-catalysed methylation of the H4 peptide (3H-SAM, Hanes/Wolffe plot): 0.059 µM
Substance: synthetic histone H4 peptide (residues 1-18) with acetyllysine at position 8 (from UniProt P02309 2-19)
